Measured values reported in patent publication US20030022827A1.

Tests used:
[1] = target: IL-10R subtype I, which consists of an IL-10R1 and an IL-10R2 (human) (UniProt Q13651); experiment: cell-based or functional assay
IL-10R1 (human) = IL-10R1 (human) (UniProt Q13651); experiment: cell-based or functional assay
Chain of IL-10R1 (human) (Q13651 22-578): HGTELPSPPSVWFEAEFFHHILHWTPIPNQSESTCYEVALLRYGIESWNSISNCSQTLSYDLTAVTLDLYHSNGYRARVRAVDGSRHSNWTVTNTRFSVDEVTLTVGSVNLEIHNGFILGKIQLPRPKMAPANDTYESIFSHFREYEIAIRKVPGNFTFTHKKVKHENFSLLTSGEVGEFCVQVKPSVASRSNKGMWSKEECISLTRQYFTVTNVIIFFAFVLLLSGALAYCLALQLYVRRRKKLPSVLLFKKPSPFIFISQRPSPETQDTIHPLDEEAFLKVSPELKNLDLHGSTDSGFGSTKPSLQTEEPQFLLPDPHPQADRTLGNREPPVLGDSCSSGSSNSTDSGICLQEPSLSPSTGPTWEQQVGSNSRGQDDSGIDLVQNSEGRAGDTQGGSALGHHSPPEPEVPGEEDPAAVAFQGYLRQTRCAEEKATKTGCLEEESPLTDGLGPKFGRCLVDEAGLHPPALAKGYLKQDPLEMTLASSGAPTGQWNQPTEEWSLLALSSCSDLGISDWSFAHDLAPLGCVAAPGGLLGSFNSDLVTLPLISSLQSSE

Chain of IL-10R subtype I, which consists of an IL-10R1 and an IL-10R2 (human) (Q13651 22-578, chain 1 of 2): as the sequence (Q13651 22-578) above
Chain of IL-10R subtype I, which consists of an IL-10R1 and an IL-10R2 (human) (Q08334 20-325, chain 2 of 2, further chain): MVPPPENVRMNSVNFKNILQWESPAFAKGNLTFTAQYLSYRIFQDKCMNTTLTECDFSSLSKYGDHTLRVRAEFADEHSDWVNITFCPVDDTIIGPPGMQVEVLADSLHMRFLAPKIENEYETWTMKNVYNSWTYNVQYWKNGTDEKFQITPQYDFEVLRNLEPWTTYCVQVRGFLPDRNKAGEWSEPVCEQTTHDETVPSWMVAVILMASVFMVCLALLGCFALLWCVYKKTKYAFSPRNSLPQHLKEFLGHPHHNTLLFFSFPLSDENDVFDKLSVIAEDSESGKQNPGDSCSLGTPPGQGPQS

With “Epstein-Barr virus-coded protein BCRF1 (from UniProt P03180 24-170) (ligand)” the expression of the low-affine IgG receptor CD16 on monocytes (flow cytometry) [1] was 30 to 100 ng/mL and the inhibition of LPS-induced TNF-α release of PBMC (ELISA of supernatant) (IL-10R1 (human)) was 3 ng/mL.
